Experiments:
[1] = target: T1, ATG12–ATG5-ATG16L1-GFP complex (E3-GFP) (human, UniProt O94817 1-140; Q9H1Y0 1-275; Q676U5-1 1-607, conjugated to a lysine residue in ATG5 (ATG12–ATG5 conjugate) | a lysine residue conjugated to ATG12); experiment: microscopy-based bead protein-protein interaction assay; 500 nM GST-mCherry-WIPI3 or GST-mCherry-WIPI4 and 100 nM E3-GFP with glutathione-coated polystyrene beads; 25 mM Hepes pH 7.5, 150 mM NaCl, 1 mM TCEP; 30 min RT, washed three times, confocal imaging; settings: both partners purified
T1 construct: ATG12, human; synthetic gene codon optimised for Sf9; conjugated to ATG5 by coexpressed ATG7 and ATG10; ATG5, human; ATG16L1 isoform β, human; Dimer with two copies of each subunit by static light scattering; no TEV cleavage is described for this complex; also called GFP-tagged E3; E3 complex; source: Sf9, coexpressed from one poly-cistronic construct with ATG7 and ATG10, purified (StrepTactin, …)
T1 sequence (O94817 whole entry, chain 1 of 3, canonical isoform): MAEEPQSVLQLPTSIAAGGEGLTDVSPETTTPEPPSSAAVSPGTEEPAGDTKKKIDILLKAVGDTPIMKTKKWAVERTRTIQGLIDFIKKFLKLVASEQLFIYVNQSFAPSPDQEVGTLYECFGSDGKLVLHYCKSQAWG
T1 sequence (Q9H1Y0 whole entry, chain 2 of 3, canonical isoform): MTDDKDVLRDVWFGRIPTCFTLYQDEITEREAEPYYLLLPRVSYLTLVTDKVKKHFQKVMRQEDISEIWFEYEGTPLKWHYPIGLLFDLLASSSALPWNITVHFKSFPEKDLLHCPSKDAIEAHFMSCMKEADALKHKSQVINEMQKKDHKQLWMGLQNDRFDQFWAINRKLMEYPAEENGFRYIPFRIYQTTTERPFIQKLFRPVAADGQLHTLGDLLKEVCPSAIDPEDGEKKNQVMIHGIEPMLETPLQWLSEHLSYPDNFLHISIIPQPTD
T1 sequence (Q676U5 whole entry, chain 3 of 3, canonical isoform): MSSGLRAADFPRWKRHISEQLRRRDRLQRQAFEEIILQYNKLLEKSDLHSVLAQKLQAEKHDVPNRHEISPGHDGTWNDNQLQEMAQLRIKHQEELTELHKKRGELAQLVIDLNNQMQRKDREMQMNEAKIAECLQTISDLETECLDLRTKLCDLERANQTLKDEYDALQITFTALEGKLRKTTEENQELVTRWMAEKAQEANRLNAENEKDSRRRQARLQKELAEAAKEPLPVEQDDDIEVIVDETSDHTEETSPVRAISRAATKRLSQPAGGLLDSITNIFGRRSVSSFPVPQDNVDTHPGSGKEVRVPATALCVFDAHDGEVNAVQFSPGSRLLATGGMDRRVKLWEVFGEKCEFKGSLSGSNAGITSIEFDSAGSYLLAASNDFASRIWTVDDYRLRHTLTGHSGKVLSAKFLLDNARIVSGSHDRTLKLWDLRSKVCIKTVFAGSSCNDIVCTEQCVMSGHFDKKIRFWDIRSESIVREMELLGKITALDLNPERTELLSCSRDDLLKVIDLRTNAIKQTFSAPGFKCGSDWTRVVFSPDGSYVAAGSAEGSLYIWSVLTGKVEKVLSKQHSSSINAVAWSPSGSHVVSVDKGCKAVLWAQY

[2] = target: T1, ATG12–ATG5-ATG16L1-GFP complex (E3-GFP); experiment: microscopy-based bead protein-protein interaction assay; RFP-Trap beads coated with mCherry-WIPI2d, mCherry-Atg21 or mCherry as baits, 5 µM E3-GFP as prey; 25 mM Hepes pH 7.5, 150 mM NaCl, 1 mM DTT; at least 30 min at RT (22°C), confocal imaging; settings: both partners purified

B1: GST-mCherry-WIPI3 (natural protein)
chain: not shown
notes: WIPI3, human; synthetic gene; Construct GST-TEV-mCherry-WIPI3; held on glutathione beads in the assay; also called GST-mCherry–tagged WIPI3; source: HEK293 GnTi, transfected, purified; not shown: GST, N-terminal, kept; mCherry, N-terminal, kept
**Q.** Does B1 bind [1]?
**A.** binds

B2: mCherry-Atg21 (natural protein, S. cerevisiae, UniProt Q02887 1-496, looked up)
chain: MKVLQFNQDATCCVVAASSHQISIFNCDPFGKCFEIDTKNSKKKTSNNNGSASNSESRNNEESILITNGSRDRTDAEEEEDNEDNALVTGNILKEGEFVIEMLFSTSLIAIADRGQGLNKGKKLKIVNTKRKCTICEIVFPHEIVDVVMNRKRMCVLLESDQIFIYDISCMKPLETIDLWEDHYKRSQANSFSNASNTGTLEGDSANLNRVATNLLANATQKSVNGSNPSVRTRRNSLRSKIRPRMVLSNDDRSILCFTAYSSPKKNKPNSEALYDVVIYDTLNVTPVNYLNSVHKGNVACLAVSHDGKLLATASDKGTIIRVFHTGVDSDYMSSRSLFKEFRRGTRLCNLYQLAFDKSMTMIGCVGDTDTIHLFKLDDASNSLPGDNSSNGHWNEEEYILASNSNPSMGTPKEIPLSKPRIANYFSKKIKSSIPNQNLSRNFAYITVNESNRSCLGFPDEFPNQVYIASDDGTFSIYSIPSKPGECVLTKNNKFT
notes: also called yeast Atg21; source: E. coli Rosetta pLysS, purified (Ni-NTA, TEV, Superdex 200); not shown: 6xHis, N-terminal, cleaved; mCherry, N-terminal, kept
**Q.** Does B2 bind [2]?
**A.** binds

— PMC7337497 (The Journal of Cell Biology, 2020)
